{"source": "patent US20050064507", "key": {"[1]": {"system": "T1, PSCD2 peptide AARKKRISVKKKQEQ (SEQ ID NO:93)", "T1 sequence": "AARKKRISVKKKQEQ"}, "[2]": {"system": "T2, PSCDBP peptide LSSMFGTLPRKSRKGSVRKQ (SEQ ID NO:144)", "T2 sequence": "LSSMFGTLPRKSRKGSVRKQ"}, "[3]": {"system": "T3, DGKZ peptide KKKKRASFKRKSSKKG (SEQ ID NO:77)", "T3 sequence": "KKKKRASFKRKSSKKG"}, "[4]": {"system": "T4, peptide KKRFSFKKSFKLSGFSFKKN (SEQ ID NO:18)", "T4 sequence": "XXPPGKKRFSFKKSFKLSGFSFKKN"}, "[5]": {"system": "T5, peptide RQRKRKLSFRRRTDKD (SEQ ID NO:5)", "T5 sequence": "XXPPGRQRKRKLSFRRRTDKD"}, "[6]": {"system": "T6, PARIS1 peptide EYLERRASRRRAV (SEQ ID NO:89)", "T6 sequence": "EYLERRASRRRAV"}, "[7]": {"system": "T7, LIMK2 peptide KATTKKRTLRKNDRK (SEQ ID NO:108)", "T7 sequence": "KATTKKRTLRKNDRK"}, "[8]": {"system": "T8, peptide LLKKRDSFRTPRDSKLE (SEQ ID NO:22)", "T8 sequence": "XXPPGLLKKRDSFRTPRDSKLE"}, "[9]": {"system": "T9, peptide VFREHQRSGSYHVRE (SEQ ID NO:45)", "T9 sequence": "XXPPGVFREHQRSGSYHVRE"}, "[10]": {"system": "T10, GABRB2 peptide QKKSRLRRRASQLKI (SEQ ID NO:84)", "T10 sequence": "QKKSRLRRRASQLKI"}, "[11]": {"system": "T11, peptide AVRDMRQTVAVGVIK (SEQ ID NO:62)", "T11 sequence": "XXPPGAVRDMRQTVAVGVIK"}, "[12]": {"system": "T12, LIMK-2 peptide LRRRSLRRSNSISKSPGP (SEQ ID NO:121)", "T12 sequence": "LRRRSLRRSNSISKSPGP"}, "[13]": {"system": "T13, MLK3 peptide HVRRRRGTFKRSKLRARD (SEQ ID NO:76)", "T13 sequence": "HVRRRRGTFKRSKLRARD"}, "[14]": {"system": "T14, peptide IDYYKKTTNGRLPVK (SEQ ID NO:73)", "T14 sequence": "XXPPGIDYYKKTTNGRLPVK"}, "[15]": {"system": "T15, peptide RRRQKRRTGALVLSRGGKR (SEQ ID NO:71)", "T15 sequence": "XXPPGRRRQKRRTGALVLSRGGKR"}, "[16]": {"system": "T16, EBNA1BP2 peptide KRPGKKGSNKRPGKR (SEQ ID NO:112)", "T16 sequence": "KRPGKKGSNKRPGKR"}, "[17]": {"system": "T17, CREB peptide VTDSQKRREILSRRPSYPKI (SEQ ID NO:141)", "T17 sequence": "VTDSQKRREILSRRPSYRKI"}, "[18]": {"system": "T18, NEURL peptide ALRRPSLRREADD (SEQ ID NO:105)", "T18 sequence": "ALRRPSLRREADD"}, "[19]": {"system": "T19, ankyrin R peptide DLIEGRKGAQIVKRASLKRG (SEQ ID NO:152)", "T19 sequence": "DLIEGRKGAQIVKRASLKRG"}, "[20]": {"system": "T20, fit1 peptide VQMTWSYPDEKNKRASVRRR (SEQ ID NO:158)", "T20 sequence": "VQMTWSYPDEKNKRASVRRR"}, "[21]": {"system": "T21, SMARCA5 peptide MAQIERGEARIQRRISIKKA (SEQ ID NO:166)", "T21 sequence": "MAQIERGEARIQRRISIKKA"}, "[22]": {"system": "T22, peptide PRLIRRGSKKRPAR (SEQ ID NO:6)", "T22 sequence": "XXPPGPRLIRRGSKKRPAR"}, "[23]": {"system": "T23, SPTBN4 peptide EGGDRRASGRRK (SEQ ID NO:110)", "T23 sequence": "EGGDRRASGRRK"}, "[24]": {"system": "T24, p47phox peptide QAQRQIKRGAPPRRSSIRNA (SEQ ID NO:146)", "T24 sequence": "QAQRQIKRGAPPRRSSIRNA"}, "[25]": {"system": "T25, CHRM1 peptide RKIPKRPGSVHRTPSRQ (SEQ ID NO:83)", "T25 sequence": "RKIPKRPGSVHRTPSRQ"}, "[26]": {"system": "T26, pleckstrin 1 peptide KAIKAIEGGQKFARKSTRRS (SEQ ID NO:126)", "T26 sequence": "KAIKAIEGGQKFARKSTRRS"}, "[27]": {"system": "T27, ERN1 peptide ISDFGLAKKLAVGRHSFSRR (SEQ ID NO:145)", "T27 sequence": "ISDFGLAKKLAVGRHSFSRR"}, "[28]": {"system": "T28, SDPR peptide EKIKRSSLKKVDSLKK (SEQ ID NO:104)", "T28 sequence": "EKIKRSSLKKVDSLKK"}, "[29]": {"system": "T29, HERG peptide TELEGGFSRQRKRKLSFRRR (SEQ ID NO:140)", "T29 sequence": "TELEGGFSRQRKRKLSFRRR"}, "[30]": {"system": "T30, peptide QKRHARVTVKYDRRE (SEQ ID NO:23)", "T30 sequence": "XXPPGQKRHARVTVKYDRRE"}, "[31]": {"system": "T31, NR4A3 peptide KEVVRTDSLKGRRGR (SEQ ID NO:109)", "T31 sequence": "KEVVRTDSLKGRRGR"}, "[32]": {"system": "T32, MARCKS peptide KKKKKRFSFKKSFKL (SEQ ID NO:80)", "T32 sequence": "KKKKKRFSFKKSFKL"}, "[33]": {"system": "T33, ERN1 peptide KLAVGRHSFSRRSGV (SEQ ID NO:94)", "T33 sequence": "KLAVGRHSFSRRSGV"}, "[34]": {"system": "T34, KCNH2 peptide RQRKRKLSFRRRTDKD (SEQ ID NO:86)", "T34 sequence": "RQRKRKLSFRRRTDKD"}, "[35]": {"system": "T35, CREB1 peptide EILSRRPSYRKILND (SEQ ID NO:106)", "T35 sequence": "EILSRRPSYRKILND"}, "[36]": {"system": "T36, MacMARCKS peptide KKKFSFKKPFKLSGLSFKRN (SEQ ID NO:162)", "T36 sequence": "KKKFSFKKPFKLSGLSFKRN"}, "[37]": {"system": "T37, peptide VQQLLRSSNRRLEQL (SEQ ID NO:49)", "T37 sequence": "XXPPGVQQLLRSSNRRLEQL"}, "[38]": {"system": "T38, MARCKS peptide PSPSNETPKKKKKRFSFKKS (SEQ ID NO:157)", "T38 sequence": "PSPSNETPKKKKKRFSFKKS"}, "[39]": {"system": "T39, MLK3 peptide QQVDRERPHVRRRRGTFKRS (SEQ ID NO:128)", "T39 sequence": "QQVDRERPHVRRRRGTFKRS"}, "[40]": {"system": "T40, peptide KEVVRTDSLKGRRGR (SEQ ID NO:30)", "T40 sequence": "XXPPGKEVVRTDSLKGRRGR"}}, "data": [{"substance": "PKC-delta", "values": [{"measurement": "in vitro phosphorylation (% of best substrate)", "setting": "[1]", "result": 35}, {"measurement": "in vitro phosphorylation, 1 uM peptide (% of best substrate)", "setting": "[2]", "result": 35}, {"measurement": "in vitro phosphorylation, 10 uM peptide (% of best substrate)", "setting": "[2]", "result": 28}, {"measurement": "in vitro phosphorylation (% of best substrate)", "setting": "[3]", "result": 76}, {"measurement": "in vitro phosphorylation (% of best substrate)", "setting": "[4]", "result": 16}, {"measurement": "in vitro phosphorylation (% of best substrate)", "setting": "[5]", "result": 42}, {"measurement": "in vitro phosphorylation (% of best substrate)", "setting": "[6]", "result": 20}, {"measurement": "in vitro phosphorylation (% of best substrate)", "setting": "[7]", "result": 6}, {"measurement": "in vitro phosphorylation (% of best substrate)", "setting": "[8]", "result": 12}, {"measurement": "in vitro phosphorylation (% of best substrate)", "setting": "[9]", "result": 2}, {"measurement": "in vitro phosphorylation (% of best substrate)", "setting": "[10]", "result": 34}, {"measurement": "in vitro phosphorylation (% of best substrate)", "setting": "[11]", "result": 1}, {"measurement": "in vitro phosphorylation, 1 uM peptide (% of best substrate)", "setting": "[12]", "result": 80}, {"measurement": "in vitro phosphorylation, 10 uM peptide (% of best substrate)", "setting": "[12]", "result": 53}, {"measurement": "in vitro phosphorylation (% of best substrate)", "setting": "[13]", "result": 100}, {"measurement": "in vitro phosphorylation (% of best substrate)", "setting": "[14]", "result": 0}, {"measurement": "in vitro phosphorylation (% of best substrate)", "setting": "[15]", "result": 1}, {"measurement": "in vitro phosphorylation (% of best substrate)", "setting": "[16]", "result": 8}, {"measurement": "in vitro phosphorylation, 1 uM peptide (% of best substrate)", "setting": "[17]", "result": 43}, {"measurement": "in vitro phosphorylation, 10 uM peptide (% of best substrate)", "setting": "[17]", "result": 21}, {"measurement": "in vitro phosphorylation (% of best substrate)", "setting": "[18]", "result": 9}, {"measurement": "in vitro phosphorylation, 1 uM peptide (% of best substrate)", "setting": "[19]", "result": 35}, {"measurement": "in vitro phosphorylation, 10 uM peptide (% of best substrate)", "setting": "[19]", "result": 18}, {"measurement": "in vitro phosphorylation, 1 uM peptide (% of best substrate)", "setting": "[20]", "result": 18}, {"measurement": "in vitro phosphorylation, 10 uM peptide (% of best substrate)", "setting": "[20]", "result": 33}, {"measurement": "in vitro phosphorylation, 1 uM peptide (% of best substrate)", "setting": "[21]", "result": 13}, {"measurement": "in vitro phosphorylation, 10 uM peptide (% of best substrate)", "setting": "[21]", "result": 29}, {"measurement": "in vitro phosphorylation (% of best substrate)", "setting": "[22]", "result": 40}, {"measurement": "in vitro phosphorylation (% of best substrate)", "setting": "[23]", "result": 5}, {"measurement": "in vitro phosphorylation, 1 uM peptide (% of best substrate)", "setting": "[24]", "result": 33}, {"measurement": "in vitro phosphorylation, 10 uM peptide (% of best substrate)", "setting": "[24]", "result": 14}, {"measurement": "in vitro phosphorylation (% of best substrate)", "setting": "[25]", "result": 38}, {"measurement": "in vitro phosphorylation, 1 uM peptide (% of best substrate)", "setting": "[26]", "result": 47}, {"measurement": "in vitro phosphorylation, 10 uM peptide (% of best substrate)", "setting": "[26]", "result": 43}, {"measurement": "in vitro phosphorylation, 1 uM peptide (% of best substrate)", "setting": "[27]", "result": 34}, {"measurement": "in vitro phosphorylation, 10 uM peptide (% of best substrate)", "setting": "[27]", "result": 23}, {"measurement": "in vitro phosphorylation (% of best substrate)", "setting": "[28]", "result": 10}, {"measurement": "in vitro phosphorylation, 1 uM peptide (% of best substrate)", "setting": "[29]", "result": 44}, {"measurement": "in vitro phosphorylation, 10 uM peptide (% of best substrate)", "setting": "[29]", "result": 49}, {"measurement": "in vitro phosphorylation (% of best substrate)", "setting": "[30]", "result": 10}, {"measurement": "in vitro phosphorylation (% of best substrate)", "setting": "[31]", "result": 7}, {"measurement": "in vitro phosphorylation (% of best substrate)", "setting": "[32]", "result": 24}, {"measurement": "in vitro phosphorylation (% of best substrate)", "setting": "[33]", "result": 12}, {"measurement": "in vitro phosphorylation (% of best substrate)", "setting": "[34]", "result": 42}, {"measurement": "in vitro phosphorylation (% of best substrate)", "setting": "[35]", "result": 9}, {"measurement": "in vitro phosphorylation, 1 uM peptide (% of best substrate)", "setting": "[36]", "result": 21}, {"measurement": "in vitro phosphorylation, 10 uM peptide (% of best substrate)", "setting": "[36]", "result": 13}, {"measurement": "in vitro phosphorylation (% of best substrate)", "setting": "[37]", "result": 2}, {"measurement": "in vitro phosphorylation, 1 uM peptide (% of best substrate)", "setting": "[38]", "result": 27}, {"measurement": "in vitro phosphorylation, 10 uM peptide (% of best substrate)", "setting": "[38]", "result": 35}, {"measurement": "in vitro phosphorylation, 1 uM peptide (% of best substrate)", "setting": "[39]", "result": 46}, {"measurement": "in vitro phosphorylation, 10 uM peptide (% of best substrate)", "setting": "[39]", "result": 57}, {"measurement": "in vitro phosphorylation (% of best substrate)", "setting": "[40]", "result": 7}]}]}
